Test results: article PMC3861047, “Role of Tomato Lipoxygenase D in Wound-Induced Jasmonate Biosynthesis and Plant Immunity to Insect Herbivores”

Biological target: MBP-SlMYC2 (Solanum lycopersicum, UniProt A0A3Q7HRZ6 1-689)
Assay: EMSA; LightShift Chemiluminescent EMSA kit (Thermo Scientific), acrylamide gel; buffer, salt, pH and temperature not given
Conditions: protein: recombinant; tags: N-terminal MBP (pMAL-c2); chain copies: 2; label: biotin (3' end per Methods); blunt

Sequence of MBP-SlMYC2 (A0A3Q7HRZ6 whole entry): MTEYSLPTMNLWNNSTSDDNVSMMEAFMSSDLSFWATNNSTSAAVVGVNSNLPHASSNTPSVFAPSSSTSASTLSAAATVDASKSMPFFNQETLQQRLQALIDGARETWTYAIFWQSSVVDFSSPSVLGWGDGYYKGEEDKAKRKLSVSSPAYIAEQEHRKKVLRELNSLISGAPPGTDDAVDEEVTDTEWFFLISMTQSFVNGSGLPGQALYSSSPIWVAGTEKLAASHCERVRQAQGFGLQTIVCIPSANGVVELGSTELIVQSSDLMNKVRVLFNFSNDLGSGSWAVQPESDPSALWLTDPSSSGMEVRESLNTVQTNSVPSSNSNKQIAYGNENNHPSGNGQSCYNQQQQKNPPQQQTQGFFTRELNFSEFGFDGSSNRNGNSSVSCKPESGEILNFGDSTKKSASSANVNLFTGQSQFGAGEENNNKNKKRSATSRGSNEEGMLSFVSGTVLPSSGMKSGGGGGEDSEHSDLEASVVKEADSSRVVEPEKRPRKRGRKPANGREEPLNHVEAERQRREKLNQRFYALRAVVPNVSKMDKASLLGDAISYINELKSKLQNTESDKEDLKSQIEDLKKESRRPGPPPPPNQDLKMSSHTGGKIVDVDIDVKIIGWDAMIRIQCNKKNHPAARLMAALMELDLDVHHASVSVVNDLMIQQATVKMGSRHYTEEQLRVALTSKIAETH

B1: TomLoxDpro probe-369 (dsDNA)
DNA 1: TCGGTTTGACTAAATTCCACCATGTGTAAAGCTTGCACTAAAATGAAACC
DNA 2: GGTTTCATTTTAGTGCAAGCTTTACACATGGTGGAATTTAGTCAAACCGA
Q: Does B1 bind?
A: binds
